Results reported in patent publication US20090035307A1 (AbbVie / Abbott, published 2009).

T1: Aβ(12-42) globulomer (human)
T1 peptide: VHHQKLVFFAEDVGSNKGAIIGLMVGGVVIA

T2: Aβ(20-42) globulomer (human)
T2 peptide: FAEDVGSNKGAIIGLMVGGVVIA


Legend:
Aβ(12-42) globulomer = molecular target: T1, Aβ(12-42) globulomer; test: dot blot, antibody 0.2 µg/mL
Experimental: (§1) For detection, the corresponding antibody was used (0.2 μg/mL). Immunostaining was done using peroxidase conjugated anti-mouse-IgG and the staining reagent BM Blue POD Substrate (Roche).
(§2) 1) 1 μL each of the different Aβ-standards (in their 5 serial dilutions) were dotted onto the nitrocellulose membrane in a distance of approximately 1 cm from each other. [0267] 2) The Aβ-standards dots were allowed to dry on the nitrocellulose membrane on air for at least 10 min at room temperature (RT) (=dot blot). [0268] 3) Blocking: [0269] The dot blot was incubated with 30 mL 5% low fat milk in TBS for 1.5 h at RT. [0270] 4) Washing: [0271] The blocking solution was discarded and the dot blot incubated under shaking with 20 mL TTBS for 10 min at RT. [0272] 5) Antibody solution I: [0273] The washing buffer was discarded and the dot blot incubated with antibody solution I for 2 h at RT. [0274] 6) Washing: [0275] The antibody solution I was discarded and the dot blot incubated under shaking with 20 mL TTBS for 10 min at RT. The washing solution was discarded and the dot blot incubated under shaking with 20 mL TTBS for 10 min at RT. The washing solution was discarded and the dot blot incubated under shaking with 20 mL TBS for 10 min at RT. [0276] 7) Antibody solution II: [0277] The washing buffer was discarded and the dot blot incubated with antibody solution II overnight at RT. [0278] 8) Washing: [0279] The antibody solution II was discarded and the dot blot incubated under shaking with 20 mL TTBS for 10 min at RT. The washing solution was discarded and the dot blot incubated under shaking with 20 mL TTBS for 10 min at RT. The washing solution was discarded and the dot blot incubated under shaking with 20 mL TBS for 10 min at RT. [0280] 9) Development: [0281] The washing solution was discarded. The dot blot was developed with 10 mL BM Blue POD Substrate for 10 min. The development was stopped by intense washing of the dot blot with H₂O. Quantitative evaluation was done using a densitometric analysis (GS800 densitometer (BioRad) and software package Quantity one, Version 4.5.0 (BioRad)) of the dot-intensity. […] This threshold value was determined for every dot-blot independently.

Aβ(20-42) globulomer = molecular target: T2, Aβ(20-42) globulomer; test: dot blot, antibody 0.2 µg/mL
Experimental: as §1, §2

Aβ(1-42) monomer = molecular target: T3, Aβ(1-42) monomer (human); test: dot blot, antibody 0.2 µg/mL
T3 construct: Synthetic peptide (Bachem H-1368) freshly dissolved in 0.1% NH4OH or 0.1% NaOH; both preparations were dotted; also called Aβ(1-42) monomer, 0.1% NH4OH; Aβ(1-42) monomer, 0.1% NaOH
Experimental: as §1, §2

Aβ(1-40) monomer = molecular target: T4, Aβ(1-40) monomer (human); test: dot blot, antibody 0.2 µg/mL
T4 construct: Synthetic peptide (Bachem) freshly dissolved in 0.1% NH4OH or 0.1% NaOH; both preparations were dotted; also called Aβ(1-40) monomer, 0.1% NH4OH; Aβ(1-40) monomer, 0.1% NaOH
T4 sequence (peptide, as listed by the source): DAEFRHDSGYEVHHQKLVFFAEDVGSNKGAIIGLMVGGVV
Experimental: as §1, §2

Aβ(1-42) globulomer = molecular target: T5, Aβ(1-42) globulomer (human); test: dot blot, antibody 0.2 µg/mL
T5 construct: also called 38/48-kDa Aβ(1-42) globulomer; Aβ(1-42) globular oligomer
Experimental: as §1, §2

[1] = molecular target: T6, Aβ(1-42) peptide in the CSF of an Alzheimer's disease patient (human); test: immunoprecipitation from CSF with antibody-coated Dynabeads, urea-PAGE and Western blot
T6 construct: Endogenous peptide immunoprecipitated from patient CSF; also called Aβ(1-42) peptide present in cerebrospinal fluid (CSF)
Experimental: Activation of Dynabeads with monoclonal mouse antibodies [0497] the stock-suspension of dynabeads (Dynabeads M-280 Sheep anti-Mouse IgG, Invitrogen; Prod. No. 112.02) was shaken carefully to prevent foaming [0498] 1 mL was aseptically removed and transferred to a 1.5 mL reaction vial [0499] the dynabeads were washed 3 times 5 min with 1 mL immunoprecipitation (IP)-wash buffer (IP-wash-buffer: PBS (20 mM NaH₂PO₄, 140 mM NaCl, pH 7.4), 0.1% (w/v) BSA) During the washing procedure the supernatant was carefully removed while the dynabeads were immobilized at the side of the reaction vial with a magnetic separator stand (MSS) [0500] the washed dynabeads were incubated with 40 μg Aβ-antibody in 1 mL PBS, 0.1% (w/v) BSA [0501] the activation was carried out by overnight incubation under shaking at 4° C. [0502] the activated dynabeads were washed 4 times 30 min (again using the MSS) with 1 mL IP-wash buffer (PBS (20 mM NaH₂PO₄, 140 mM NaCl, pH 7.4), 0.1% (w/v) BSA) [0503] the activated dynabeads were resuspended with 1 mL PBS, 0.1% (w/v) BSA, 0.02% (w/v) Na-Azide; vortexed and centrifuged briefly [0504] the antibody activated dynabeads were stored at 4° C. until further use
250 μL aliquot of the prepared CSF sample were added to 25 μL anti-Aβ-Dynabeads suspension [0507] Immunoprecipitation occurred under stirring at 6° C. for 16 hours. […]

[2] = molecular target: T7, soluble amyloid precursor protein-alpha (sAPPα) (UniProt P05067-4 18-612, limits assumed); test: dot blot on nitrocellulose, densitometry
T7 construct: Bought protein; also called sAPPα (Sigma)
T7 sequence (P05067 other isoform, or with tags, fused parts or gaps limits assumed): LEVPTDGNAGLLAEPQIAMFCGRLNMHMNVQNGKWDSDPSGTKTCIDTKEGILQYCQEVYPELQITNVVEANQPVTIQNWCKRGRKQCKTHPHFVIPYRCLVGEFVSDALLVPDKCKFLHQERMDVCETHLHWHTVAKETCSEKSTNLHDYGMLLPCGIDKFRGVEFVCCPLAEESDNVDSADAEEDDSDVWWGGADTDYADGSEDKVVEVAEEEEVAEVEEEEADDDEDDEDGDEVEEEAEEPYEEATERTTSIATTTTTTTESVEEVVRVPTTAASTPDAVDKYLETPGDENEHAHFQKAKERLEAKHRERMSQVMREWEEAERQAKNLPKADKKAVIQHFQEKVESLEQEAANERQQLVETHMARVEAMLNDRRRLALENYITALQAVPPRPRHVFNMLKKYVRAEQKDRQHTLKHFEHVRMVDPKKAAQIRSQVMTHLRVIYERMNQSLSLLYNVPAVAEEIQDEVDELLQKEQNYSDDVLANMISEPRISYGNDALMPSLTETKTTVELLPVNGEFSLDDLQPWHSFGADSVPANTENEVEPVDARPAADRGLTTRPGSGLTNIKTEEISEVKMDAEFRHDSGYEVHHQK
Experimental: as §1
1) 1 μL each of the different Aβ-standards (in their 5 serial dilutions) were dotted onto the nitrocellulose membrane in a distance of approximately 1 cm from each other. [0267] 2) The Aβ-standards dots were allowed to dry on the nitrocellulose membrane on air for at least 10 min at room temperature (RT) (=dot blot). [0268] 3) Blocking: [0269] The dot blot was incubated with 30 mL 5% low fat milk in TBS for 1.5 h at RT. [0270] 4) Washing: [0271] The blocking solution was discarded and the dot blot incubated under shaking with 20 mL TTBS for 10 min at RT. [0272] 5) Antibody solution I: [0273] The washing buffer was discarded and the dot blot incubated with antibody solution I for 2 h at RT. [0274] 6) Washing: [0275] The antibody solution I was discarded and the dot blot incubated under shaking with 20 mL TTBS for 10 min at RT. The washing solution was discarded and the dot blot incubated under shaking with 20 mL TTBS for 10 min at RT. […] Quantitative evaluation was done using a densitometric analysis (GS800 densitometer (BioRad) and software package Quantity one, Version 4.5.0 (BioRad)) of the dot-intensity. […] This threshold value was determined for every dot-blot independently.

binding result (Aβ(12-42) globulomer) | binding result (Aβ(20-42) globulomer) | binding result (Aβ(1-42) monomer) | binding result (Aβ(1-40) monomer) | binding result (Aβ(1-42) globulomer) | binding result [1] | Binder | binding result [2]
binds | binds | binds | binds | binds | binds | monoclonal antibody 3C5 (antibody, V domains shown, Murine monoclonal antibody from a hybridoma (Balb/c mice immunized with Aβ(12-42) globulomer); also called mAb 3C5; ML45-3C5.5) VH: DVQLQESGPGLVKPSQSLSLTCTVAGSSITSHYAWNWIRQFPGNKLEWMGYIDYSGSTRYLPSLKSRISITRDTSKNQFFLQLNSVTTEDTATYYCARGSGYFYGMDYWGQGTSVTVSS VL: DIQMNQSPSSLSPSLGDTITITCHASQNINVWLSWYQQKPGNIPKLLIYKASNLHTGVPSRFSGSGSGIGFTLTIRSLQPEDIATYFCQQGQSYPYTFGGGTKLEIKR | no binding (tested: antibody 0.2 µg/mL; first dot: 1 pmol)
binds | binds | binds | binds | binds | binds | monoclonal antibody 10F4 (antibody, V domains shown, Murine monoclonal antibody from a hybridoma (Balb/c mice immunized with Aβ(12-42) globulomer); also called mAb 10F4; ML43-10F4.3H8) VH: QVQLQQSGAELVRPGTSVRVSCKASGYAFTNYLIEWVKQRPGQGLEWIGVINPGSGDTNYNENFKGKATLTADKSSSTAYMHLSSLTSDDSAVYFCTRGVITTGFDYWGQGTTLTISS VL: DIQMTQSPASLSASVGETVTITCRASGNIHNYLAWYQQKQGKSPQLLVYNAKTLADGVPSRFSGSGSGTQYSLKINSLQPEDFGSYYCQHFWSSPRTFGGGTKLEIKR | no binding (tested: antibody 0.2 µg/mL; first dot: 1 pmol)
